In publication PMC5659314 (Journal of immunology (Baltimore, Md. : 1950), 2017):

T1: human TL1A (human, UniProt O95150 72-251)
T1 sequence (looked up): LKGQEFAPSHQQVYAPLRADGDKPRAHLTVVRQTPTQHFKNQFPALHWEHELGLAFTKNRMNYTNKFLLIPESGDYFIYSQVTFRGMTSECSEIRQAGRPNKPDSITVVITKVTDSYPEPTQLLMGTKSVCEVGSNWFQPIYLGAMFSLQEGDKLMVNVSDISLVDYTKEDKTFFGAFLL

B1: human DR3.Fc (fusion protein containing the extracellular region of human DR3) (Fc fusion, UniProt Q93038 25-199, looked up)
chain: QGGTRSPRCDCAGDFHKKIGLFCCRGCPAGHYLKAPCTEPCGNSTCLVCPQDTFLAWENHHNSECARCQACDEQASQVALENCSAVADTRCGCKPGWFVECQVSQCVSSSPFYCQPCLDCGALHRHTRLLCSRRDTDCGTCLPGFYEHGDGCVSCPTSTLGSCPERCAAVCGWRQ
B2: de-glycosylated human DR3.Fc (PNGase F treated) (Fc fusion, UniProt Q93038 25-199, looked up)
chain: B1 chain
modifications: N-linked sugars removed by PNGase F

Experiments:
[1] = biological target: mouse DR3.Fc (mouse); assay: SPR
[2] = biological target: recombinant human Galectin-9 (human, UniProt O00182 1-355); assay: SPR
[3] = biological target: recombinant mouse Galectin-9 (mouse, UniProt O08573 1-353); assay: SPR
[4] = biological target: T1, human TL1A; assay: ELISA

Sequence of recombinant mouse Galectin-9 (mouse, UniProt O08573 1-353) (O08573 whole entry): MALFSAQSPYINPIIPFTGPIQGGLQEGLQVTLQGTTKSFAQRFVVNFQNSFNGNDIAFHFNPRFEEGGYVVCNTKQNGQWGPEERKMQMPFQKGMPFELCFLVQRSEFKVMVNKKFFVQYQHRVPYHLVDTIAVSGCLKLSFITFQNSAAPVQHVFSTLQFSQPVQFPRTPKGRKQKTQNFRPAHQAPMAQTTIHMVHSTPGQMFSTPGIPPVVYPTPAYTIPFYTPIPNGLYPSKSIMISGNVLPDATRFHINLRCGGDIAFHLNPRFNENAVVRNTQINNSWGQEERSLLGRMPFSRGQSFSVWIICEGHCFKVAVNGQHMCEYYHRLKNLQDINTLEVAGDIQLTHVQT
Sequence of recombinant human Galectin-9 (human, UniProt O00182 1-355) (O00182 whole entry): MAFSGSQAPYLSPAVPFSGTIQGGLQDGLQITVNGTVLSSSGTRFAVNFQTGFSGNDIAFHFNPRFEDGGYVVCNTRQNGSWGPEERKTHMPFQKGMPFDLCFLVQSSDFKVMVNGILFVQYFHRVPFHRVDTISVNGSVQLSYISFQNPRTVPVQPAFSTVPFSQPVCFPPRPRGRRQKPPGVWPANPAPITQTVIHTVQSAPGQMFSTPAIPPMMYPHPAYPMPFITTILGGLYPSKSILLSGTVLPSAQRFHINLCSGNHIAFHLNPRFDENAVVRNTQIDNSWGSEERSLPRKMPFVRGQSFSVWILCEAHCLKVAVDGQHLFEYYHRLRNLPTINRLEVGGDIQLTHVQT

Molecule	Kd [1]	Kd [2]	Kd [3]	binding result [4]
recombinant human Galectin-9 (from UniProt O00182 1-355) (natural protein)	180 nM	–	–	–
recombinant mouse Galectin-9 (from UniProt O08573 1-353) (natural protein)	360 nM	–	–	–
B1	–	~430 nM	~440 nM	binds
B2	–	–	–	binds
